Publication doi:10.1101/2022.03.30.486445 (bioRxiv, 2022)

Key:
His6-EB1-CyPet = molecular target: T1, His6-EB1-CyPet (human, UniProt Q15691 1-268); assay: FRET or BRET
T1 sequence: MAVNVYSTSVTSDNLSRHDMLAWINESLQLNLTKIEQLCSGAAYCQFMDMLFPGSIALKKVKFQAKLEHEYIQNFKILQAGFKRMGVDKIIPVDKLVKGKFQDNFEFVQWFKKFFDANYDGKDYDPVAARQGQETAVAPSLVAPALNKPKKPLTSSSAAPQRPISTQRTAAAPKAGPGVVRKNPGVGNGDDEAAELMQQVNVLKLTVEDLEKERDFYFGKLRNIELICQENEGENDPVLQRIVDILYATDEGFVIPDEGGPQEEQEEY

[1] = molecular target: doubly stabilized microtubules (GMPCPP and paclitaxel) (UniProt Q6B856 1-445); assay: co-sedimentation
[2] = molecular target: GMPCPP-stabilized HyLite 647/biotin-labeled microtubules (bovine) (UniProt Q6B856); assay: single-molecule TIRF microscopy

B1: YPet-Kif18B(605-707)-His6 (domain or fragment)
chain: TRTMARRLSGPLHTLGIPPGPNCTPAQGSRWPMEKKRRRPSALEADSPMAPKRGTKRQRQSFLPCLRRGSLPDTQPSQGPSTPKGERASSPCHSPRVCPATVI
B1: binds (His6-EB1-CyPet).

B2: YPet-Kif18B(708-828)-His6 (domain or fragment)
chain: KSRVPLGPSAMQNCSTPLALPTRDLNATFDLSEEPPSKPSFHECIGWDKIPQELSRLDQPFIPRAPVPLFTMKGPKPTSSLPGTSACKKKRVASSSVSHGRSRIARLPSSTLKRPAGPLVL
B2: binds (His6-EB1-CyPet).

B3: YPet-Kif18B(708-828) E2 (domain or fragment)
chain: KSRVPLGPSAMQNCSTPLALPTRDLNATFDLSEEPPSKPSFHECIGWDKIPQELSRLDQPFIPRAPVPLFTMKGPKPTSSNNGTSACKKKRVASSSVSHGRSRIARLPSSTLKRPAGPLVL
B3: binds (His6-EB1-CyPet).

B4: YPet-Kif18B(605-828)-His6 (domain or fragment)
chain: TRTMARRLSGPLHTLGIPPGPNCTPAQGSRWPMEKKRRRPSALEADSPMAPKRGTKRQRQSFLPCLRRGSLPDTQPSQGPSTPKGERASSPCHSPRVCPATVIKSRVPLGPSAMQNCSTPLALPTRDLNATFDLSEEPPSKPSFHECIGWDKIPQELSRLDQPFIPRAPVPLFTMKGPKPTSSLPGTSACKKKRVASSSVSHGRSRIARLPSSTLKRPAGPLVL
In the case of B4, the “fold increase in the Kd for MTs with importin α/β against without” value [1] is reported as 9 fold and the binding result (His6-EB1-CyPet) is reported as “binds”.

B5: YPet-Kif18B(605-828)-NLS1/2 (domain or fragment)
chain: TRTMARRLSGPLHTLGIPPGPNCTPAQGSRWPMEAAARRPSALEADSPMAPAAGTKRQRQSFLPCLRRGSLPDTQPSQGPSTPKGERASSPCHSPRVCPATVIKSRVPLGPSAMQNCSTPLALPTRDLNATFDLSEEPPSKPSFHECIGWDKIPQELSRLDQPFIPRAPVPLFTMKGPKPTSSLPGTSACAAAAVASSSVSHGRSRIARLPSSTLKRPAGPLVL
B5 was tested, and the “fold increase in the Kd for MT binding relative to YPet-Kif18B(605-828)” value [1] was ~2 fold and the binding result (His6-EB1-CyPet) was “binds”.

B6: GFP-Kif18B (full-length human Kif18B N-terminally tagged with EGFP) (natural protein)
chain: MAVEDSTLQVVVRVRPPTPRELDSQRRPVVQVVDERVLVFNPEEPDGGFPGLKWGGTHDGPKKKGKDLTFVFDRVFGEAATQQDVFQHTTHSVLDSFLQGYNCSVFAYGATGAGKTHTMLGREGDPGIMYLTTVELYRRLEARQQEKHFEVLISYQEVYNEQIHDLLEPKGPLAIREDPDKGVVVQGLSFHQPASAEQLLEILTRGNRNRTQHPTDANATSSRSHAIFQIFVKQQDRVPGLTQAVQVAKMSLIDLAGSERASSTHAKGERLREGANINRSLLALINVLNALADAKGRKTHVPYRDSKLTRLLKDSLGGNCRTVMIAAISPSSLTYEDTYNTLKYADRAKEIRLSLKSNVTSLDCHISQYATICQQLQAEVAALRKKLQVYEGGGQPPPQDLPGSPKSGPPPEHLPSSPLPPHPPSQPCTPELPAGPRALQEESLGMEAQVERAMEGNSSDQEQSPEDEDEGPAEEVPTQMPEQNPTHALPESPRLTLQPKPVVGHFSARELDGDRSKQLALKVLCVAQRQYSLLQAANLLTPDMITEFETLQQLVQEEKIEPGAEALRTSGLARGAPLAQELCSESIPVPSPLCPEPPGYTGPVTRTMARRLSGPLHTLGIPPGPNCTPAQGSRWPMEKKRRRPSALEADSPMAPKRGTKRQRQSFLPCLRRGSLPDTQPSQGPSTPKGERASSPCHSPRVCPATVIKSRVPLGPSAMQNCSTPLALPTRDLNATFDLSEEPPSKPSFHECIGWDKIPQELSRLDQPFIPRAPVPLFTMKGPKPTSSLPGTSACKKKRVASSSVSHGRSRIARLPSSTLKRPAGPLVLPGDWH
Binder B6 has a dwell time at MT plus ends [2] of 5.56 s, a dwell time at MT plus ends, with importin α/β [2] of 5.39 s and a dwell time on the MT lattice [2] of 1.77 s. It also gave a dwell time on the MT lattice, with importin α/β [2] of 2.3 s, an on-rate on MTs (landing events per MT length and time) [2] of 0.26 µm·s^-1 and an on-rate on MTs (landing events per MT length and time), with importin α/β [2] of 0.35 µm·s^-1.
